Assay results reported in patent publication US20170137818, “APTAMER INHIBITING BIOLOGICAL ACTIVITY OF AUTOTAXIN BY BINDING WITH AUTOTAXIN, AND USE THEREOF” (RIBOMIC INC., published 2017).

Target: T1, autotaxin (endogenous, human pooled serum) (Homo sapiens, UniProt Q13822 Q13822:36-863)
Assay: inhibition; LPA production in serum, 1.0 uM

Binder | activity [% inhibition]
CCTGGACGGAACCAGAATACTTTTGGTCTCCAGG (ssDNA, 2'-OMe C1,G5,C7,G9,C12,C13,A14,G15,A19,C20,A32,G33,G34; 5' 40 kDa PEG via ssH linker, 3' idT) [12(49)] | 58

Target: T1, autotaxin (endogenous, human pooled …)
Assay: inhibition; LPA production in serum, 0.025 uM

Binder | activity [% inhibition]
CCTGGACGGAACCAGAATACTTTTGGTCTCCAGG (ssDNA, 2'-OMe C7,G9,A14,G15,A19,C20,A32,G33,G34; P-methyl G8,C12,C28; 5' 40 kDa PEG via ssH linker, 3' idT) [12(133)] | 90
CCTGGACGGAACCAGAATACTTTTGGTCTCCAGG (ssDNA, 2'-OMe C7,G9,A14,G15,A19,C20,A32,G33,G34; P-methyl C1,G5,G8,C12,A14,A16,T21,T23,C28,C30,C31; 5' idT, 3' idT) [12(141)] | 56
CCTGGACGGAACCAGAATACTTTTGGTCTCCAGG (ssDNA, 2'-OMe C7,G9,A14,G15,A19,C20,A32,G33,G34; P-methyl C1,G5,G8,C12,A16,T21,T23,C28,C30,C31; 5' idT, 3' idT) [12(132)] | 59
CCTGGACGGAACCAGAATACTTTTGGTCTCCAGG (ssDNA, 2'-OMe C7,G9,A14,G15,A19,C20,A32,G33,G34; P-methyl C1,G5,G8,C12,A14,A16,A19,T21,T23,C28,C30,C31,G34; 5' 40 kDa PEG via ssH linker, 3' idT) [12(147)] | 70
CCTGGACGGAACCAGAATACTTTTGGTCTCCAGG (ssDNA, 2'-OMe C7,G9,A14,G15,A19,C20,A32,G33,G34; P-methyl C1,G5,G8,C12,A16,A19,T21,T23,C28,C30,C31; 5' 40 kDa PEG via ssH linker, 3' idT) [12(145)] | 82
CCTGGACGGAACCAGAATACTTTTGGTCTCCAGG (ssDNA, 2'-OMe C7,G9,A14,G15,A19,C20,A32,G33,G34; P-methyl C1,G5,G8,C12,A16,T21,T23,C28,C30,C31,G34; 5' idT, 3' idT) [12(135)] | 50
CCTGGACGGAACCAGAATACTTTTGGTCTCCAGG (ssDNA, 2'-OMe C7,G9,A14,G15,A19,C20,A32,G33,G34; P-methyl C1,G5,G8,C12,A16,A19,T21,T23,C28,C30,C31; 5' idT, 3' idT) [12(139)] | 71

Target: T2, autotaxin (ENPP2/NPP2) (Homo sapiens, UniProt Q13822 Q13822:36-863)
Assay: inhibition; LPA production, 0.025 uM aptamer, ~92% serum, 37C 3 h

Binder | activity [% inhibition]
CCTGGACGGAACCAGAATACTTTTGGTCTCCAGG (ssDNA, 2'-OMe C7,G9,A14,G15,A19,C20,A32,G33,G34; P-methyl C1,G5,G8,C12,A16,T21,T23,C28,C30,C31,G33; idT 5' and 3') [12(136)] | 17
CCTGGACGGAACCAGAATACTTTTGGTCTCCAGG (ssDNA, 2'-OMe C7,G9,A14,G15,A19,C20,A32,G33,G34; P-methyl C1,G5,G8,C12,A16,T21,T23,C28,C30,C31,A32; idT 5' and 3') [12(137)] | 56
CCTGGACGGAACCAGAATACTTTTGGTCTCCAGG (ssDNA, 2'-OMe C7,G9,A14,G15,A19,C20,A32,G33,G34; P-methyl C1,G5,G8,C12,A14,A16,T21,T23,C28,C30,C31; 5' 40 kDa PEG (GL2-400GS2) via ssH linker; 3' idT) [12(146)] | 70
CCTGGACGGAACCAGAATACTTTTGGTCTCCAGG (ssDNA, 2'-OMe C7,G9,A14,G15,A19,C20,A32,G33,G34; P-methyl C1,G5,G8,C12,A16,C20,T21,T23,C28,C30,C31; idT 5' and 3') [12(138)] | 44
CCTGGACGGAACCAGAATACTTTTGGTCTCCAGG (ssDNA, 2'-OMe C7,G9,A14,G15,A19,C20,A32,G33,G34; P-methyl C1,G5,G8,G9,C12,A16,T21,T23,C28,C30,C31; idT 5' and 3') [12(142)] | 44
CCTGGACGGAACCAGAATACTTTTGGTCTCCAGG (ssDNA, 2'-OMe C7,G9,A14,G15,A19,C20,A32,G33,G34; P-methyl C1,G5,G8,C12,A16,T21,T23,C28,C30,C31; 5' 40 kDa PEG (GL2-400GS2) via ssH linker; 3' idT) [12(134)] | 69
CCTGGACGGAACCAGAATACTTTTGGTCTCCAGG (ssDNA, 2'-OMe C7,G9,A14,G15,A19,C20,A32,G33,G34; P-methyl C1,G5,G8,C12,G15,A16,T21,T23,C28,C30,C31; idT 5' and 3') [12(140)] | 29

Target: T2, autotaxin (ENPP2/NPP2)
Assay: inhibition; LPA production, 0.20 uM aptamer, ~92% serum, 37C 3 h

Binder | activity [% inhibition]
CCTGGACGGAACCAGAATACTTTTGGTCTCCAGG (ssDNA, 2'-OMe C7,G9,A14,G15,A19,C20,A32,G33,G34; 5' 40 kDa PEG (GL2-400GS2) via ssH linker; 3' C12 spacer) [12(57)] | 93
CCTGGACGGAACCAGAATACTTTTGGTCTCCAGG (ssDNA, 2'-OMe C7,G9,A14,G15,A19,C20,A32,G33,G34; 5' 80 kDa PEG (GL4-800GS2) via ssH linker; 3' idT) [12(52)] | 92
CCTGGACGGAACCAGAATACTTTTGGTCTCCAGG (ssDNA, 2'-OMe C7,G9,A14,G15,A19,C20,A32,G33,G34; 5' 80 kDa PEG (GL2-800TS) via ssH linker; 3' idT) [12(51)] | 91
CCTGGACGGAACCAGAATACTTTTGGTCTCCAGG (ssDNA, 2'-OMe C7,G9,A14,G15,A19,C20,A32,G33,G34; 5' C12 spacer; 3' idT) [12(55)] | 91
CCTGGACGGAACCAGAATACTTTTGGTCTCCAGG (ssDNA, 2'-OMe C7,G9,A14,G15,A19,C20,A32,G33,G34; 5' 80 kDa PEG (GL4-800TS) via ssH linker; 3' idT) [12(53)] | 92
CCTGGACGGAACCAGAATACTTTTGGTCTCCAGG (ssDNA, 2'-OMe C7,G9,A14,G15,A19,C20,A32,G33,G34; 5' 40 kDa PEG (GL2-400GS2) via ssH linker; 3' C6 spacer) [12(56)] | 93
CCTGGACGGAACCAGAATACTTTTGGTCTCCAGG (ssDNA, 2'-OMe C7,G9,A14,G15,A19,C20,A32,G33,G34; 5' idT; 3' C12 spacer) [12(54)] | 89

Target: T2, autotaxin (ENPP2/NPP2)
Assay: inhibition; NPP2 assay, 1 mM pNP-TMP, 0.3 nM autotaxin, 37 C

Binder | IC50 [nM]
SEQ 8 aptamer (ssDNA) DNA: GTGGTCTAGCTGTACTCCGAAAGCCGGAACCGTGCCAATGGTCGCTACTTCAGCTCCCCACAGTCAACGAGCTA | 10
